Non-standard residues stand in square brackets, D forms with d. No end group written: not given here. *: point of attachment. Phe(F5) = N[C@@H](Cc1c(F)c(F)c(F)c(F)c1F)C(=O)O; Desaminotyrosyl = O=C(CCc1ccc(O)cc1)*; NMeY = CN[C@@H](Cc1ccc(O)cc1)C(=O)O; Agmatine = N=C(N)NCCCCN*; NMeA = CN[C@@H](C)C(=O)O; Nle = CCCC[C@H](N)C(=O)O; Orn = NCCC[C@H](N)C(=O)O; Abu = CC[C@H](N)C(=O)O; Ava = NCCCCC(=O)O; GABA = NCCCC(=O)O
T1: human GHRH receptor (human pituitary membrane homogenates) (human, UniProt Q02643 23-423)
T1 construct: whole, on cells; Native receptor in human pituitary membrane homogenates, not on intact cells; also called hGHRH receptor
T1 sequence (looked up): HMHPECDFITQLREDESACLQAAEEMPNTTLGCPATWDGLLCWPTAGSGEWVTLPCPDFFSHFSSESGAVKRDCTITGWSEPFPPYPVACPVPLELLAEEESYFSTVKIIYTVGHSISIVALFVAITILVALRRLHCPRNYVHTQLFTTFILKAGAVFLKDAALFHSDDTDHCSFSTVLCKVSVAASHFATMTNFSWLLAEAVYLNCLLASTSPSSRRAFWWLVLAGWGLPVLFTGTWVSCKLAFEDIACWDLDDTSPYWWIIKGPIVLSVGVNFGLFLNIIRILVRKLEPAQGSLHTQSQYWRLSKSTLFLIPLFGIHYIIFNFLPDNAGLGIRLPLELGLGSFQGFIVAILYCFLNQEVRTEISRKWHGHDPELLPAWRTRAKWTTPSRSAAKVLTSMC

B1: P-20357 [Dat^1, D-Ala^2, N-Me-Ala^8, Orn^12, Abu^15, Orn^21, Nle^27, Asp^28, Agm^29]hGHRH(1-29)NH2 (peptide)
peptide: [Desaminotyrosyl][dA]DAIFT[NMeA]SYR[Orn]VL[Abu]QLSAR[Orn]LLQDI[Nle]D[Agmatine]
SMILES: CCCC[C@H](NC(=O)[C@@H](NC(=O)[C@H](CC(=O)O)NC(=O)[C@H](CCC(N)=O)NC(=O)[C@H](CC(C)C)NC(=O)[C@H](CC(C)C)NC(=O)[C@H](CCCN)NC(=O)[C@H](CCCNC(=N)N)NC(=O)[C@H](C)NC(=O)[C@H](CO)NC(=O)[C@H](CC(C)C)NC(=O)[C@H](CCC(N)=O)NC(=O)[C@H](CC)NC(=O)[C@H](CC(C)C)NC(=O)[C@@H](NC(=O)[C@H](CCCN)NC(=O)[C@H](CCCNC(=N)N)NC(=O)[C@H](Cc1ccc(O)cc1)NC(=O)[C@H](CO)NC(=O)[C@H](C)N(C)C(=O)[C@@H](NC(=O)[C@H](Cc1ccccc1)NC(=O)[C@@H](NC(=O)[C@H](C)NC(=O)[C@H](CC(=O)O)NC(=O)[C@@H](C)NC(=O)CCc1ccc(O)cc1)[C@@H](C)CC)[C@@H](C)O)C(C)C)[C@@H](C)CC)C(=O)N[C@@H](CC(=O)O)C(=O)NCCCCNC(=N)N
notes: also called Peptide 20357
B2: P-27400 [Dat^1, D-Ala^2, Orn^12, Abu^15, Orn^21, Nle^27, Asp^28]hGHRH(1-29)NH-CH3 (peptide)
peptide: [Desaminotyrosyl][dA]DAIFTNSYR[Orn]VL[Abu]QLSAR[Orn]LLQDI[Nle]DR-NHMe
SMILES: CCCC[C@H](NC(=O)[C@@H](NC(=O)[C@H](CC(=O)O)NC(=O)[C@H](CCC(N)=O)NC(=O)[C@H](CC(C)C)NC(=O)[C@H](CC(C)C)NC(=O)[C@H](CCCN)NC(=O)[C@H](CCCNC(=N)N)NC(=O)[C@H](C)NC(=O)[C@H](CO)NC(=O)[C@H](CC(C)C)NC(=O)[C@H](CCC(N)=O)NC(=O)[C@H](CC)NC(=O)[C@H](CC(C)C)NC(=O)[C@@H](NC(=O)[C@H](CCCN)NC(=O)[C@H](CCCNC(=N)N)NC(=O)[C@H](Cc1ccc(O)cc1)NC(=O)[C@H](CO)NC(=O)[C@H](CC(N)=O)NC(=O)[C@@H](NC(=O)[C@H](Cc1ccccc1)NC(=O)[C@@H](NC(=O)[C@H](C)NC(=O)[C@H](CC(=O)O)NC(=O)[C@@H](C)NC(=O)CCc1ccc(O)cc1)[C@@H](C)CC)[C@@H](C)O)C(C)C)[C@@H](C)CC)C(=O)N[C@@H](CC(=O)O)C(=O)N[C@@H](CCCNC(=N)N)C(=O)NC
B3: P-27401 [Dat^1, D-Ala^2, Gln^8, Orn^12, Abu^15, Orn^21, Nle^27, Asp^28, D-Arg^29]hGHRH(1-29)NH-CH3 (peptide)
peptide: [Desaminotyrosyl][dA]DAIFTQSYR[Orn]VL[Abu]QLSAR[Orn]LLQDI[Nle]D[dR]-NHMe
SMILES: CCCC[C@H](NC(=O)[C@@H](NC(=O)[C@H](CC(=O)O)NC(=O)[C@H](CCC(N)=O)NC(=O)[C@H](CC(C)C)NC(=O)[C@H](CC(C)C)NC(=O)[C@H](CCCN)NC(=O)[C@H](CCCNC(=N)N)NC(=O)[C@H](C)NC(=O)[C@H](CO)NC(=O)[C@H](CC(C)C)NC(=O)[C@H](CCC(N)=O)NC(=O)[C@H](CC)NC(=O)[C@H](CC(C)C)NC(=O)[C@@H](NC(=O)[C@H](CCCN)NC(=O)[C@H](CCCNC(=N)N)NC(=O)[C@H](Cc1ccc(O)cc1)NC(=O)[C@H](CO)NC(=O)[C@H](CCC(N)=O)NC(=O)[C@@H](NC(=O)[C@H](Cc1ccccc1)NC(=O)[C@@H](NC(=O)[C@H](C)NC(=O)[C@H](CC(=O)O)NC(=O)[C@@H](C)NC(=O)CCc1ccc(O)cc1)[C@@H](C)CC)[C@@H](C)O)C(C)C)[C@@H](C)CC)C(=O)N[C@@H](CC(=O)O)C(=O)N[C@H](CCCNC(=N)N)C(=O)NC
B4: P-27408 [Dat^1, D-Ala^2, Gln^8, Orn^12, Abu^15, Orn^21, Nle^27, Asp^28]hGHRH(1-29)NH-CH3 (peptide)
peptide: [Desaminotyrosyl][dA]DAIFTQSYR[Orn]VL[Abu]QLSAR[Orn]LLQDI[Nle]DR-NHMe
SMILES: CCCC[C@H](NC(=O)[C@@H](NC(=O)[C@H](CC(=O)O)NC(=O)[C@H](CCC(N)=O)NC(=O)[C@H](CC(C)C)NC(=O)[C@H](CC(C)C)NC(=O)[C@H](CCCN)NC(=O)[C@H](CCCNC(=N)N)NC(=O)[C@H](C)NC(=O)[C@H](CO)NC(=O)[C@H](CC(C)C)NC(=O)[C@H](CCC(N)=O)NC(=O)[C@H](CC)NC(=O)[C@H](CC(C)C)NC(=O)[C@@H](NC(=O)[C@H](CCCN)NC(=O)[C@H](CCCNC(=N)N)NC(=O)[C@H](Cc1ccc(O)cc1)NC(=O)[C@H](CO)NC(=O)[C@H](CCC(N)=O)NC(=O)[C@@H](NC(=O)[C@H](Cc1ccccc1)NC(=O)[C@@H](NC(=O)[C@H](C)NC(=O)[C@H](CC(=O)O)NC(=O)[C@@H](C)NC(=O)CCc1ccc(O)cc1)[C@@H](C)CC)[C@@H](C)O)C(C)C)[C@@H](C)CC)C(=O)N[C@@H](CC(=O)O)C(=O)N[C@@H](CCCNC(=N)N)C(=O)NC
notes: also called Peptide 27408
B5: P-22326 [N-Me-Tyr^1, D-Ala^2, Gln^8, Orn^12, Abu^15, Orn^21, Nle^27, Asp^28, Apa^30]hGHRH(1-30)NH2 (peptide)
peptide: [NMeY][dA]DAIFTQSYR[Orn]VL[Abu]QLSAR[Orn]LLQDI[Nle]DR[Ava]-NH2
modifications: N-terminus assumed
SMILES: CCCC[C@H](NC(=O)[C@@H](NC(=O)[C@H](CC(=O)O)NC(=O)[C@H](CCC(N)=O)NC(=O)[C@H](CC(C)C)NC(=O)[C@H](CC(C)C)NC(=O)[C@H](CCCN)NC(=O)[C@H](CCCNC(=N)N)NC(=O)[C@H](C)NC(=O)[C@H](CO)NC(=O)[C@H](CC(C)C)NC(=O)[C@H](CCC(N)=O)NC(=O)[C@H](CC)NC(=O)[C@H](CC(C)C)NC(=O)[C@@H](NC(=O)[C@H](CCCN)NC(=O)[C@H](CCCNC(=N)N)NC(=O)[C@H](Cc1ccc(O)cc1)NC(=O)[C@H](CO)NC(=O)[C@H](CCC(N)=O)NC(=O)[C@@H](NC(=O)[C@H](Cc1ccccc1)NC(=O)[C@@H](NC(=O)[C@H](C)NC(=O)[C@H](CC(=O)O)NC(=O)[C@@H](C)NC(=O)[C@H](Cc1ccc(O)cc1)NC)[C@@H](C)CC)[C@@H](C)O)C(C)C)[C@@H](C)CC)C(=O)N[C@@H](CC(=O)O)C(=O)N[C@@H](CCCNC(=N)N)C(=O)NCCCCC(N)=O
notes: also called Peptide 22326
B6: P-25501 [N-Me-Tyr^1, D-Ala^2, Orn^12, Abu^15, Orn^21, Nle^27, Gab^30]hGHRH(1-30)NH2 (peptide)
peptide: [NMeY][dA]DAIFTNSYR[Orn]VL[Abu]QLSAR[Orn]LLQDI[Nle]SR[GABA]-NH2
modifications: N-terminus assumed
SMILES: CCCC[C@H](NC(=O)[C@@H](NC(=O)[C@H](CC(=O)O)NC(=O)[C@H](CCC(N)=O)NC(=O)[C@H](CC(C)C)NC(=O)[C@H](CC(C)C)NC(=O)[C@H](CCCN)NC(=O)[C@H](CCCNC(=N)N)NC(=O)[C@H](C)NC(=O)[C@H](CO)NC(=O)[C@H](CC(C)C)NC(=O)[C@H](CCC(N)=O)NC(=O)[C@H](CC)NC(=O)[C@H](CC(C)C)NC(=O)[C@@H](NC(=O)[C@H](CCCN)NC(=O)[C@H](CCCNC(=N)N)NC(=O)[C@H](Cc1ccc(O)cc1)NC(=O)[C@H](CO)NC(=O)[C@H](CC(N)=O)NC(=O)[C@@H](NC(=O)[C@H](Cc1ccccc1)NC(=O)[C@@H](NC(=O)[C@H](C)NC(=O)[C@H](CC(=O)O)NC(=O)[C@@H](C)NC(=O)[C@H](Cc1ccc(O)cc1)NC)[C@@H](C)CC)[C@@H](C)O)C(C)C)[C@@H](C)CC)C(=O)N[C@@H](CO)C(=O)N[C@@H](CCCNC(=N)N)C(=O)NCCCC(N)=O
notes: also called Peptide 25501

biological target: T1, human GHRH receptor (human pituitary …); assay: radioligand competition vs 125I-JV-1-42 (0.2 nM), human pituitary membranes
Text: Normal human pituitaries were purchased from the National Hormone and Peptide Program (A. F. Parlow, Los Angeles, County Harbor-UCLA Medical Center, Torrance, Calif.).

Row | Binder | Relative affinity (Binding potency) vs JI-38 [fold]
1 | B1 | 5.06
2 | [NMeY][dA]DAI[Phe(F5)]TNSYR[Orn]VL[Abu]QLSAR[Orn]LLQDI[Nle]D[Agmatine] (also called Peptide 20359) [P-20359 [N-Me-Tyr^1, D-Ala^2, Fpa5^6, Orn^12, Abu^15, Orn^21, Nle^27, Asp^28, Agm^29]hGHRH(1-29)NH2] | 1.43
3 | [NMeY][dA]DAIFTNSYR[Orn]VL[Abu]QLSAR[Orn]LLQDI[Nle]D[Agmatine] (also called Peptide 20367) [P-20367 [N-Me-Tyr^1, D-Ala^2, Orn^12, Abu^15, Orn^21, Nle^27, Asp^28, Agm^29]hGHRH(1-29)NH2] | 2.56
4 | B2 | 1.3
5 | [NMeY][dA]DAI[Phe(F5)]TNSYR[Orn]VL[Abu]QLSAR[Orn]LLQDI[Nle]DR-NHMe [P-27404 [N-Me-Tyr^1, D-Ala^2, Fpa5^6, Orn^12, Abu^15, Orn^21, Nle^27, Asp^28]hGHRH(1-29)NH-CH3] | 5
6 | [NMeY][dA]DAIFTNSYR[Orn]VL[Abu]QLSAR[Orn]LLQDI[Nle]DR-NHMe (also called Peptide 27409; MR-409) [P-27409 [N-Me-Tyr^1, D-Ala^2, Orn^12, Abu^15, Orn^21, Nle^27, Asp^28]hGHRH(1-29)NH-CH3] | 4.1
7 | [NMeY][dA]DAIFTTSYR[Orn]VL[Abu]QLSAR[Orn]LLQDI[Nle]DR-NHMe (also called Peptide 27410) [P-27410 [N-Me-Tyr^1, D-Ala^2, Thr^8, Orn^12, Abu^15, Orn^21, Nle^27, Asp^28]hGHRH(1-29)NH-CH3] | 5.24
8 | [NMeY][dA]DAIFTNSYR[Orn]VL[Abu]QLSAR[Orn]LLQDI[Nle]DR-NHEt (also called Peptide 28421) [P-28421 [N-Me-Tyr^1, D-Ala^2, Orn^12, Abu^15, Orn^21, Nle^27, Asp^28]hGHRH(1-29)NH-CH2-CH3] | 2.96
9 | B3 | 1.59
10 | [NMeY][dA]DAIFTQSYR[Orn]VL[Abu]QLSAR[Orn]LLQDI[Nle]DR-NHMe [P-27403 [N-Me-Tyr^1, D-Ala^2, Gln^8, Orn^12, Abu^15, Orn^21, Nle^27, Asp^28]hGHRH(1-29)NH-CH3] | 27.2
11 | B4 | 7.91
12 | [NMeY][dA]DAIFTQSYR[Orn]VL[Abu]QLSAR[Orn]LLQDI[Nle]DR-NHEt (also called Peptide 28420) [P-28420 [N-Me-Tyr^1, D-Ala^2, Gln^8, Orn^12, Abu^15, Orn^21, Nle^27, Asp^28]hGHRH(1-29)NH-CH2-CH3] | 8.37
13 | B5 | 6.12
14 | B6 | 4.07
15 | [NMeY][dA]DAI[Phe(F5)]TNSYR[Orn]VL[Abu]QLSAR[Orn]LLQDI[Nle]SR[GABA]-NHMe (also called Peptide 27414) [P-27414 [N-Me-Tyr^1, D-Ala^2, Fpa5^6, Orn^12, Abu^15, Orn^21, Nle^27, Gab^30]hGHRH(1-30)NH-CH3] | 2.79

Source: patent publication US20140193378A1 (UNIVERSITY OF MIAMI, published 2014)
